The source of these data is PMC6595629, “Continuous Culture Adaptation of Methylobacterium extorquens AM1 and TK 0001 to Very High Methanol Concentrations” (Frontiers in Microbiology, 2019).

As a reminder, the Km is the concentration of substrate that gives half-maximal velocity. As a reminder, the kcat is the number of substrate molecules converted per active site and unit of time at saturation. As usually defined, the kcat/Km is the turnover number divided by the Michaelis constant.

For data set [1], the target named is T1, MetY (O-acetyl-L-homoserine sulfhydrylase) (Methylorubrum extorquens, UniProt C5ARH8).
T1 construct: full-length, N-terminal 6xHis tag, modified pET22b(+), E. coli BL21(DE3), purified; printed primers translate to N-terminus MHHHHHHSDQTPASVY and C-terminus TLARAA
Put plainly: coupled acetic acid assay (NADH oxidation, […] nm). In kind it is biochemical. To be noted: pH 7.4, room temperature; co-substrate O-acetyl-L-homoserine saturating.

Substrate in the data set “purified protein”: CC(=O)OCC[C@H](N)C(=O)O
Put plainly: purified protein. Particulars: pH 7.4, room temperature, other substrate saturating (sulfide or methanol; which one is not given). In kind it is biochemical, Methylorubrum extorquens.

Regarding `S` [Sodium sulfide], the Km in data set [1] was determined as 800 ± 200 µM.

B1: MetY (O-acetyl-L-homoserine sulfhydrylase) (Methylorubrum extorquens AM1) (protein)
chain: MTDRQPGFNTLAIHAGATPDPATGARATPIYQTTSFVFDDVDHAASLFGLQAFGNIYTRITNPTNAVLEERIAALEGGTAALAVASGHAAEFLTLHALMQPGDEFIAANKLYGGSINQFNHSYKNFGWQVVWADTDDPDSFERAITPRTKAIFCESIANPGGVITDIAALSVIAKRHNIPLIVDNTMATPYLIKPFEHGADIVVHSATKFLGGHGNSIGGLIVDGGTFQWQGDARYPMLSEPRPEYAGMVLAETFGNFGFAIAVRVLSLRDLGPSLSPFNAFLILNGIETLPLRMQRHSDNALKVATFLKNHANVDWVSYPGLESDRYHALAQRYTPKGAGAVFTFGLKGGYEAGVKLVSNLQLFSHLANIGDTRSLVIHPASTTHRQLTDEQKRAAGAGPEVVRLSIGIEDAQDLIDDLDAALRA
notes: full-length, N-terminal 6xHis tag, modified pET22b(+), E. coli BL21(DE3), purified; printed primers translate to N-terminus … and C-terminus TLARAA
Take B1: in the data set “purified protein”, the Michaelis-Menten constant (Km) came to 1300 ± 200 µM, the turnover number (kcat) was 2.32 ± 0.12 s⁻¹ and the specificity constant (kcat/Km) is 1850 M⁻¹ s⁻¹.
